Measured values from patent publication US20230002480A1.

Tests used:
Test in all cases: cell-based or functional assay
[1] = biological target: HIV-1 Env of pseudovirus 231966.c02 (clade D) (HIV-1)
[2] = biological target: HIV-1 Env of pseudovirus 6041.v3.c23 (clade AC) (HIV-1)
[3] = biological target: HIV-1 Env of pseudovirus Q23.17 (HIV-1)
[4] = biological target: HIV-1 Env of pseudovirus 0815.v3.c3 (clade ACD) (HIV-1)
[5] = biological target: HIV-1 Env of pseudovirus X2131_C1_B5 (clade G) (HIV-1)
[6] = biological target: HIV-1 Env of pseudovirus 3301.v1.c24 (clade AC) (HIV-1)
[7] = biological target: HIV-1 Env of pseudovirus X1632_S2_B10 (clade G) (HIV-1)
[8] = biological target: HIV-1 Env of pseudovirus 3103.v3.c10 (clade ACD) (HIV-1)
[9] = biological target: HIV-1 Env of pseudovirus 6480.v4.c25 (clade CD) (HIV-1)
[10] = biological target: HIV-1 Env of pseudovirus 3817.v2.c59 (clade CD) (HIV-1)
[11] = biological target: HIV-1 Env of pseudovirus 191084 B7-19 (HIV-1)
[12] = biological target: HIV-1 Env of pseudovirus BJOX025000.01.1 (clade CRF01_AE (T/F)) (HIV-1)
[13] = biological target: HIV-1 Env of pseudovirus 89-F1_2_25 (clade CD) (HIV-1)
[14] = biological target: HIV-1 Env of pseudovirus 6545.v4.c1 (clade AC) (HIV-1)
[15] = biological target: HIV-1 Env of pseudovirus A07412M1.vrc12 (clade D) (HIV-1)
[16] = biological target: HIV-1 Env of pseudovirus P1981_C5_3 (clade G) (HIV-1)
[17] = biological target: HIV-1 Env of pseudovirus 231965.c01 (clade D) (HIV-1)
[18] = biological target: HIV-1 Env of pseudovirus Ce1176_A3 (HIV-1)
[19] = biological target: HIV-1 Env of pseudovirus 0260.v5.c36 (HIV-1)
[20] = biological target: HIV-1 Env of pseudovirus 6540.v4.c1 (clade AC) (HIV-1)
[21] = biological target: HIV-1 Env of pseudovirus 3415.v1.c1 (HIV-1)
[22] = biological target: HIV-1 Env of pseudovirus 3016.v5.c45 (clade D) (HIV-1)
[23] = biological target: HIV-1 Env of pseudovirus 6811.v7.c18 (clade CD) (HIV-1)
[24] = biological target: HIV-1 Env of pseudovirus 6952.v1.c20 (clade CD) (HIV-1)
[25] = biological target: HIV-1 Env pseudovirus R2184.c04 (HIV-1)
[26] = biological target: HIV-1 Env pseudovirus 6540.v4.c1 (HIV-1)
[27] = biological target: HIV-1 Env pseudovirus R3265.c06 (HIV-1)

For 10-1074 (antibody), the IC50, titer in TZM.bl cells [1] was > 50 µg/mL, the IC80, titer in TZM.bl cells [1] was > 50 µg/mL and the IC50, titer in TZM.bl cells [2] was > 50 µg/mL. For the same substance, the IC80, titer in TZM.bl cells [2] was > 50 µg/mL, the IC50, titer in TZM.bl cells [3] was 0.006 µg/mL and the IC80, titer in TZM.bl cells [3] was 0.021 µg/mL. The IC50, titer in TZM.bl cells [4] was 0.03 µg/mL, the IC80, titer in TZM.bl cells [4] was 0.138 µg/mL and the IC50, titer in TZM.bl cells [5] was 0.016 µg/mL. The IC80, titer in TZM.bl cells [5] was 0.064 µg/mL, the IC50, titer in TZM.bl cells [6] was 0.013 µg/mL and the IC80, titer in TZM.bl cells [6] was 0.042 µg/mL. For the same substance, the IC50, titer in TZM.bl cells [7] was > 50 µg/mL, the IC80, titer in TZM.bl cells [7] was > 50 µg/mL and the IC50, titer in TZM.bl cells [8] was 0.037 µg/mL. The IC80, titer in TZM.bl cells [8] was 0.101 µg/mL, the IC50, titer in TZM.bl cells [9] was 0.009 µg/mL and the IC80, titer in TZM.bl cells [9] was 0.041 µg/mL. It also gave an IC50, titer in TZM.bl cells [10] of 3.15 µg/mL, an IC80, titer in TZM.bl cells [10] of 14.9 µg/mL and an IC50, titer in TZM.bl cells [11] of 0.032 µg/mL. For the same substance, the IC80, titer in TZM.bl cells [11] was 0.128 µg/mL, the IC50, titer in TZM.bl cells [12] was > 50 µg/mL and the IC80, titer in TZM.bl cells [12] was > 50 µg/mL. For the same substance, the IC50, titer in TZM.bl cells [13] was > 50 µg/mL, the IC80, titer in TZM.bl cells [13] was > 50 µg/mL and the IC50, titer in TZM.bl cells [14] was > 50 µg/mL. The IC80, titer in TZM.bl cells [14] was > 50 µg/mL, the IC50, titer in TZM.bl cells [15] was < 0.001 µg/mL and the IC80, titer in TZM.bl cells [15] was 0.048 µg/mL. For the same substance, the IC50, titer in TZM.bl cells [16] was 0.005 µg/mL, the IC80, titer in TZM.bl cells [16] was 0.017 µg/mL and the IC50, titer in TZM.bl cells [17] was > 50 µg/mL. For the same substance, the IC80, titer in TZM.bl cells [17] was > 50 µg/mL, the IC50, titer in TZM.bl cells [18] was 0.019 µg/mL and the IC80, titer in TZM.bl cells [18] was 0.07 µg/mL. For the same substance, the IC50, titer in TZM.bl cells [19] was 0.099 µg/mL, the IC80, titer in TZM.bl cells [19] was 0.16 µg/mL and the IC50, titer in TZM.bl cells [20] was > 50 µg/mL. For the same substance, the IC80, titer in TZM.bl cells [20] was > 50 µg/mL, the IC50, titer in TZM.bl cells [21] was > 50 µg/mL and the IC80, titer in TZM.bl cells [21] was > 50 µg/mL. The IC50, titer in TZM.bl cells [22] was > 50 µg/mL, the IC80, titer in TZM.bl cells [22] was > 50 µg/mL and the IC50, titer in TZM.bl cells [23] was 0.002 µg/mL. For the same substance, the IC80, titer in TZM.bl cells [23] was 0.01 µg/mL, the IC50, titer in TZM.bl cells [24] was 0.037 µg/mL and the IC80, titer in TZM.bl cells [24] was 0.138 µg/mL.
Work on 10E8 (antibody) yielded an IC50, titer in TZM.bl cells [1] of 0.191 µg/mL, an IC80, titer in TZM.bl cells [1] of 3.13 µg/mL and an IC50, titer in TZM.bl cells [2] of 2.33 µg/mL. It also gave an IC80, titer in TZM.bl cells [2] of 9.77 µg/mL, an IC50, titer in TZM.bl cells [3] of 1.64 µg/mL and an IC80, titer in TZM.bl cells [3] of 7.04 µg/mL. For the same substance, the IC50, titer in TZM.bl cells [4] was 0.332 µg/mL, the IC80, titer in TZM.bl cells [4] was 2.87 µg/mL and the IC50, titer in TZM.bl cells [5] was 0.189 µg/mL. The IC80, titer in TZM.bl cells [5] was 0.974 µg/mL, the IC50, titer in TZM.bl cells [6] was 4.63 µg/mL and the IC80, titer in TZM.bl cells [6] was > 10 µg/mL. The IC50, titer in TZM.bl cells [7] was 1.98 µg/mL, the IC80, titer in TZM.bl cells [7] was 9.68 µg/mL and the IC50, titer in TZM.bl cells [8] was > 10 µg/mL. The IC80, titer in TZM.bl cells [8] was > 10 µg/mL, the IC50, titer in TZM.bl cells [9] was 8.08 µg/mL and the IC80, titer in TZM.bl cells [9] was > 10 µg/mL. It also gave an IC50, titer in TZM.bl cells [10] of 1.18 µg/mL, an IC80, titer in TZM.bl cells [10] of 5.98 µg/mL and an IC50, titer in TZM.bl cells [11] of 5.16 µg/mL. For the same substance, the IC80, titer in TZM.bl cells [11] was > 10 µg/mL, the IC50, titer in TZM.bl cells [12] was 0.107 µg/mL and the IC80, titer in TZM.bl cells [12] was 6.33 µg/mL. For the same substance, the IC50, titer in TZM.bl cells [13] was 1.11 µg/mL, the IC80, titer in TZM.bl cells [13] was 10 µg/mL and the IC50, titer in TZM.bl cells [14] was 1.78 µg/mL. For the same substance, the IC80, titer in TZM.bl cells [14] was 8.23 µg/mL, the IC50, titer in TZM.bl cells [15] was 0.576 µg/mL and the IC80, titer in TZM.bl cells [15] was 6.05 µg/mL. For the same substance, the IC50, titer in TZM.bl cells [16] was 0.057 µg/mL, the IC80, titer in TZM.bl cells [16] was 0.285 µg/mL and the IC50, titer in TZM.bl cells [17] was > 10 µg/mL. The IC80, titer in TZM.bl cells [17] was > 10 µg/mL, the IC50, titer in TZM.bl cells [18] was 0.867 µg/mL and the IC80, titer in TZM.bl cells [18] was 3.92 µg/mL. The IC50, titer in TZM.bl cells [19] was > 10 µg/mL, the IC80, titer in TZM.bl cells [19] was > 10 µg/mL and the IC50, titer in TZM.bl cells [20] was 1.9 µg/mL. For the same substance, the IC80, titer in TZM.bl cells [20] was 10 µg/mL, the IC50, titer in TZM.bl cells [22] was 0.476 µg/mL and the IC80, titer in TZM.bl cells [22] was 4.39 µg/mL. For the same substance, the IC50, titer in TZM.bl cells [23] was 7.54 µg/mL, the IC80, titer in TZM.bl cells [23] was > 10 µg/mL and the IC50, titer in TZM.bl cells [24] was 0.343 µg/mL. It also gave an IC80, titer in TZM.bl cells [24] of 1.91 µg/mL.
N49P9 (antibody) gave an IC50 [3] of 0.032 µg/mL, an IC80 [3] of 0.091 µg/mL and an MPI [3] of 100. The IC50 [25] was 0.015 µg/mL, the IC80 [25] was 0.034 µg/mL and the MPI [25] was 100. For the same substance, the IC50 [26] was > 50 µg/mL, the IC80 [26] was > 50 µg/mL and the MPI [26] was 49. For the same substance, the IC50 [18] was 0.258 µg/mL, the IC80 [18] was 0.919 µg/mL and the MPI [18] was 100. The IC50 [27] was 0.135 µg/mL, the IC80 [27] was 0.812 µg/mL and the MPI [27] was 100.
